In US20070111944A1 (published 2007):

B1: refolded dimeric VEGF-B167 (ligand)
chain: APVSQPDAPGHQRKVVSWIDVYTRATCQPREVVVPLTVELMGTVAKQLVPSCVTVQRCGGCCPDDGLECVPTGQHQVRMQILMIRYPSSQLGEMSLEEHSQCECRPKKKDSAVKPDSPRPLCPRCTQHHQRPDPRTCRCRCRRRSFLRCQGRGLELNPDTCRCRKLRR
notes: also called purified dimeric VEGF-B167

Assays:
[1] = target: chimeric receptor consisting of the extracellular and transmembrane domain of VEGFR1 fused to the cytoplasmic domain of gp130 (UniProt P17948); test: cell-based or functional assay
[2] = target: T1, VEGF-R1/Fc (human, UniProt P17948-2 27-758, limits assumed); test: competition ELISA on captured VEGF-R1/Fc; competitor VEGF-A165 at 10 ng/ml, detected with biotinylated anti-VEGF-A165; VEGF-A165 at 10 ng/ml; VEGF-R1/Fc captured on plate
T1 construct: Bought from R&D Systems; also called VEGF receptor 1; Flt-1; not shown: human immunoglobulin Fc domain
Description: 1. […] 2. […] 6. […] 7. Biotinylated anti-VEGF-A₁₆₅ (10 ng/ml in Buffer 20, 100 μl) was added and incubated for 1 hr. […] 8. […] 9. […] 10. […] 11.

[3] = target: T2, VEGF-R2/Fc (human, UniProt P35968 20-764); test: SPR (Biacore 2000), VEGF-B167 immobilised, receptor-Fc injected
T2 construct: Bought from R&D Systems; also called VEGF receptor 2; not shown: human immunoglobulin Fc domain
Description: For control purposes binding of the receptors to VEGF-A₁₆₅ was also monitored. Both VEGF-B₁₆₇ and VEGF-A₁₆₅ were individually immobilised to a sensorchip using NHS/EDC chemistry according to the manufacturer's instructions. Briefly, 35 μl of NHS and EDC was injected onto the sensorchip at a flow rate of 5 μl/min to activate the sensor surface and enable covalent coupling of either VEGF-A₁₆₅ or VEGF-B₁₆₇. […] Post coupling, diaminoethane (50 mM, pH 9.0) was used to block any unbound activated sites on the sensor surface. Concentrated dimeric VEGF-B₁₆₇ (200 μg/ml) was diluted (1:10) in 20 mM sodium acetate and immobilized onto a separate channel on the sensorchip. Post coupling, diaminoethane (50 mM, pH 9.0) was used to block any unbound activated sites on the sensor surface.
At the end of each run, the surface of the sensorchip was regenerated using 2 cycles of phosphoric acid (0.1 M, 30 μl) at a flow of 50 μl/min. […] Both were diluted into 0.1% w/v BSA in PBS as a stock solution (50 μg/ml, storage −20° C.).

Sequence of chimeric receptor consisting of the extracellular and transmembrane domain of VEGFR1 fused to the cytoplasmic domain of gp130 (P17948 other isoform, or with tags, fused parts or gaps mutant limits assumed): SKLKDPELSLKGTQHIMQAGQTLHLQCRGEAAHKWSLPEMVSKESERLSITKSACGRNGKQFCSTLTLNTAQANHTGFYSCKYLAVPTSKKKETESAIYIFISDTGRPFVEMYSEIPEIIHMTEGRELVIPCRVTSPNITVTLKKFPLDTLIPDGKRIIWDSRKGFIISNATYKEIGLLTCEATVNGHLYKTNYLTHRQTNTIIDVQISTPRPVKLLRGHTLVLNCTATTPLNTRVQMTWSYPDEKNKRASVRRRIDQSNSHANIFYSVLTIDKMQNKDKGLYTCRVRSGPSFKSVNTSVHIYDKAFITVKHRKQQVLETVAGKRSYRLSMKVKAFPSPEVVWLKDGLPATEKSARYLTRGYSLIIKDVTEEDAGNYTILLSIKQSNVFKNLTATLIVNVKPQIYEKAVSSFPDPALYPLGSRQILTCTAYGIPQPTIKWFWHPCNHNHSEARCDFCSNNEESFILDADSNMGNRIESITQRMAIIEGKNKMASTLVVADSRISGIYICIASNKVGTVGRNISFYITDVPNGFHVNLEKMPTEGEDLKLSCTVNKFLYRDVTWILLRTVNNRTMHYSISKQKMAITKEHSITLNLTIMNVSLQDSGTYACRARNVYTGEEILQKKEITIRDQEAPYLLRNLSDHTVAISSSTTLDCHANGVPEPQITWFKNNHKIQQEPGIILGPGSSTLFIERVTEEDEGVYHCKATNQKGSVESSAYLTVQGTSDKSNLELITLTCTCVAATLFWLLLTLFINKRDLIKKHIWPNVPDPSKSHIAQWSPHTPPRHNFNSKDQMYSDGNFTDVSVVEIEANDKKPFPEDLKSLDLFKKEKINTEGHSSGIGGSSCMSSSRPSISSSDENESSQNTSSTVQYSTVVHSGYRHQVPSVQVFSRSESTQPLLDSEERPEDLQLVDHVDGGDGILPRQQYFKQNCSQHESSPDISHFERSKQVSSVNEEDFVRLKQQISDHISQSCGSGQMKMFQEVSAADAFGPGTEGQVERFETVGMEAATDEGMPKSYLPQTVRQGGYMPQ
T1 sequence (P17948 27-758 limits assumed, form in doubt): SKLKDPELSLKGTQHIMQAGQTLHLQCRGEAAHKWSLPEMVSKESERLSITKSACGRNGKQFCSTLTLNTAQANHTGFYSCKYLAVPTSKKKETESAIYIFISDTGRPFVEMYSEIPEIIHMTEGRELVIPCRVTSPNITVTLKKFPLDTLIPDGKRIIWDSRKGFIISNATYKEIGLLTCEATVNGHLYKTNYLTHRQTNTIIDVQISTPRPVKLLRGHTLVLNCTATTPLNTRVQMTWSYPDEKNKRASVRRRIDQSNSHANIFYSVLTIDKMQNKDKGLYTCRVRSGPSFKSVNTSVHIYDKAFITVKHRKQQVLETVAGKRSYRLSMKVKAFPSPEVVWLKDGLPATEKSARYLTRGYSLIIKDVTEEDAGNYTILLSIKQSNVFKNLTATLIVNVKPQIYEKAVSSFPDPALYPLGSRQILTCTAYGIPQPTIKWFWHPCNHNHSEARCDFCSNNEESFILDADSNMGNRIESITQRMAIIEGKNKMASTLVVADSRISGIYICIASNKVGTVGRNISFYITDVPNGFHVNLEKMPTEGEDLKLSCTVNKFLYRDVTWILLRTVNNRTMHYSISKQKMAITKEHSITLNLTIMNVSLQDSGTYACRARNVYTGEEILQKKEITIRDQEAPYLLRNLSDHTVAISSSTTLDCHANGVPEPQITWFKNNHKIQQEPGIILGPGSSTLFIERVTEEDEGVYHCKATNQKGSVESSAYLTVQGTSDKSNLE
T2 sequence (P35968 20-764 limits assumed): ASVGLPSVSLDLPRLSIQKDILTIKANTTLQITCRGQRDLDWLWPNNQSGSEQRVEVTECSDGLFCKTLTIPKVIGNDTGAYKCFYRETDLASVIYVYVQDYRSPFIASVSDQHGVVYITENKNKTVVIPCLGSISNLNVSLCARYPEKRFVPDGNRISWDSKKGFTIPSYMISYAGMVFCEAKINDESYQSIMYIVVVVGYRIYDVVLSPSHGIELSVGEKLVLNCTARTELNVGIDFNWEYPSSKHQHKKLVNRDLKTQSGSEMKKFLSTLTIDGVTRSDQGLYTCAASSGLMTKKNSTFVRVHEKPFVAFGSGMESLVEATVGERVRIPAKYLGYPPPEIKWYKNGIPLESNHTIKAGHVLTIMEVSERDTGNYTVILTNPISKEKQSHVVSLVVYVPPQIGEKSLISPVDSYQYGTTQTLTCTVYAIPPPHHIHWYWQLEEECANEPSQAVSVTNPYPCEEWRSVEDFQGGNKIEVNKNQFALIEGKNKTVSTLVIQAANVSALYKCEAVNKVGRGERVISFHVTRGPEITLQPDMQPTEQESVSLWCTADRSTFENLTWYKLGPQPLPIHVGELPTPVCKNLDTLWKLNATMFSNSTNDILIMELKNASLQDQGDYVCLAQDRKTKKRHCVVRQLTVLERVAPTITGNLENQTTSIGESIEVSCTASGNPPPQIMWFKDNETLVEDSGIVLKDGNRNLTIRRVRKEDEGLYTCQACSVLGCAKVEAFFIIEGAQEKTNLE

| Molecule | luciferase reporter activity (ED50) [1] | IC50 [2] | binding result [3] |
| --- | --- | --- | --- |
| VEGF-A (from UniProt P15692 27-191) (ligand) | 10 to 50 ng/mL | – | – |
| B1 | – | ~0.02 µg/mL | no binding (tested: 50 µg/ml stock diluted 1:10) |
